Experiments:
E. coli = assay: 1-undecene production in E. coli overexpressing PFL_4321, PFL_0203 or homologs, with or without UcFatB2; assay type: cell-based; details: E. coli BL21 Star (pZR60), headspace GC-MS
Experimental: E. coli, P. aeruginosa PAO-1, and P. aeruginosa PA14 strains were grown in 5 mL of LB medium overnight at 37° C., while all the other Pseudomonas and Acinetobacter strains were grown at 30° C. […] The culture was shaken in a sealed 20 mL headspace vial (Agilent certified) containing a stir bar at 30° C. for 36 hr. After incubation, an SPME fiber (30 μm polydimethylsiloxane, Supelco, Sigma-Aldrich Group, Bellefonte, Pa.) was manually inserted into the headspace vial and incubated at 25° C. for 12.5 min. GC-MS analysis was conducted on a Varian CP-3800 instrument equipped with a Varian 320-MS. […] The signals of the 1-alkenes were identified and quantified by comparison with authentic samples (MP Biomedicals), which were diluted in ethyl acetate, added to 5 mL of culture medium in a sealed headspace vial, and sampled by the same SPME-GCMS method as described above.
[…] 1-Undecene production was detected by using the SPME-GCMS method. […]
To investigate whether PFL_0203 was facilitating the production of 1-undecene, this gene was individually expressed in E. coli and the cells were monitored for 1-undecene production. […]

[1] = Initial production rate determination under single turnover conditions; assay type: biochemical; details: single turnover condition
Experimental: To determine the initial rates of 1-alkene production under the single turnover conditions, the O2-saturated buffer solution (50 mM MES, pH 6.2, 100 mM NaCl) was mixed with an equal volume of an O2-free solution containing 50 mM MES buffer (pH 6.2), 100 mM NaCl, 200 μM (NH4)2Fe(SO4)2, 0.2-20 μM PFL_4321, and various concentrations of substrate (2-300 μM), so that the final mixture contained 50 mM MES buffer (pH 6.2), 100 mM NaCl, 0.1-10 μM PFL_4321, 100 μM (NH4)2Fe(SO4)2, and various concentrations of substrate (1-150 μM). The reactions were carried out in sealed GC vials and quenched by injecting 1 M NaOH at 2, 4, 6, 8, 10, 20, 30, 40, 50, 60 seconds. The productions of 1-alkenes were analyzed by SPME-GCMS analysis.

B1: PFL_4321: protein of 261 amino acids from Pseudomonas fluorescens Pf-5; non-heme iron (II)-dependent enzyme converting medium-chain fatty acids into terminal olefins (protein, listed as Pseudomonas fluorescens)
chain: MIDTFSRTGPLMEAASYPAWTQQLIQDCSESKRRVVEHELYQRMRDNKLSAKVMRQYLIGGWPVVEQFALYMAQNLTKTRFARHPGEDMARRWLMRNIRVELNHADYWVHWSRAHGVTLEDLQAQQVPPELHALSHWCWHTSSADSLIVAIAATNYAIEGATGEWSALVCSNGIYAAAFPEEDRKRAMKWLKMHAQYDDAHPWEALEIIVTLAGLNPTKALQAELRQAICKSYDYMYLFLERCMQQEKTAVTRERLALAEG
1-undecene produced (E. coli): ~5 µg/mL
initial rate of 1-undecene production [1]: 0.06±0.002 mol 1-undecene/(mol PFL_4321-Fe(II) second)
